Laboratory results: patent US9987370B2, “Self-assembling drug amphiphiles and methods for synthesis and use” (priority 2012, dated 2018)
Side chains are listed from the residue outwards. Ends that are not written are not given here. Peptide text beside a SMILES is read from it. * marks the point of attachment. X1 = CC(=O)N[C@@H](CSSCCCC(=O)O[C@@H](C(=O)O[C@H]1C[C@@]2(O)[C@@H](OC(=O)c3ccccc3)[C@@H]3[C@]4(OC(C)=O)CO[C@@H]4C[C@H](O)[C@@]3(C)C(=O)[C@H](OC(C)=O)C(=C1C)C2(C)C)[C@@H](NC(=O)c1ccccc1)c1ccccc1)C(=O)*; Paclitaxel(2'-OCO(CH2)3S) = CC(=O)O[C@H]1C(=O)[C@@]2(C)[C@H]([C@H](OC(=O)c3ccccc3)[C@]3(O)C[C@H](OC(=O)[C@H](OC(=O)CCCS*)[C@@H](NC(=O)c4ccccc4)c4ccccc4)C(C)=C1C3(C)C)[C@]1(OC(C)=O)CO[C@@H]1C[C@@H]2O; buSS = disulfanylbutanoate linker

Key:
[1] = system: non-small cell lung cancer A549; type: cell-based, human
Procedure: (§1) To evaluate anti-tumor efficacy, the cytotoxicity of PXL-buSS-Tau towards human breast cancer MCF-7, non-small cell lung cancer A549, and human prostate cancer PC-3 FLU cell lines was determined (FIG. 33).

[2] = system: human breast cancer MCF-7; type: cell-based
Procedure: as §1

[3] = system: human prostate cancer PC-3 FLU; test: Cytotoxicity of PXL-buSS-Tau by SRB assay; type: cell-based; conditions: 48 hours
Procedure: as §1

[4] = PXL release study in PBS buffer at 37° C.; type: physicochemical
Procedure: FIG. 32 depicts the PXL-buSS-Tau release curve in PBS buffer under 37° C.
PXL release studies were carried out at 100 μM and 5 μM concentrations in PBS buffer at 37° C. (FIG. 32). […] After 2 hrs, around 70% of the PXL-buSS-Tau was cleaved by glutathione at 5 μM while only 40% paclitaxel was released at 100 μM, again illustrating the protective effect that self-assembly into nanostructures has upon the biodegradable linker.

[5] = Critical micellization concentration of CPT drug amphiphiles by a fluorescence method; type: physicochemical; conditions: 10 mM sodium phosphate
Procedure: FIGS. 5A-5C depicts the fluorometric determination of the CMC values for mCPT-buSS-Tau (a), dCPT-buSS-Tau (b) and qCPT-buSS-Tau (c) in 10 mM sodium phosphate.
The critical micellization concentrations of mCPT-buSS-Tau, dCPT-buSS-Tau and qCPT-buSS-Tau were determined to be 207 nM, 74 nM and 53 nM, respectively, by a fluorescence method (FIG. 5). These very low values are in the range of macromolecular amphiphiles and are an important property of these conjugates. A high value would lead to rapid dissociation of the nanostructure when diluted upon introduction into the bloodstream, whereas a low value would impart greater stability to the assembly during circulation.

[6] = system: PXL-resistant KB-V1 cervical cancer cells; test: Cytotoxicity study of dual drug amphiphiles by SRB; type: cell-based; conditions: KB-V1, 48 hours
Procedure: (§2) Both cell lines are sensitive to CPT. […] (n=3).
(§3) Cytotoxicity Study. The activity of the synthesized conjugates to prohibit proliferative ability was assessed through the determination of a dose-response relationship against PXL-sensitive and -resistant cervical cancer cell lines—KB-3-1 and KB-V1, respectively. Both cell lines were individually incubated for 48 hours with the conjugates alone or in combination, either individually to determine their sensitivity to the conjugates (FIGS. 46 a-b) and also as a co-culture to mimic a heterogeneous tumor (FIG. 46 c). […] This antagonistic behavior has been previously observed, and is suspected to arise from an up-regulation of anti-apoptosis genes on co-treatment with CPT that would inhibit the mechanism by which PXL exerts its cytotoxicity.

[7] = system: co-culture of KB-3-1 and KB-V1 cervical cancer cells; conditions: co-culture KB-3-1 and KB-V1, 48 hours
Procedure: Cell viability was determined by SRB assay after 48 hours incubation with the appropriate drug-containing media. […] Data are given as mean±s.d. (n=3).
Cell Culture. KB-3-1 and KB-V1 ovarian cancer cells were cultured in DMEM (Invitrogen) containing 10% fetal bovine serum (FBS, Invitrogen) and 1% of antibiotics (Invitrogen), and 1 μg/mL vinblastine was added for KB-V1 to maintain its multidrug resistance. The two cell types were incubated at 37° C. in an Oasis humidified incubator with a 5% CO2 atmosphere (Caron, Marietta, Ohio).
Cytotoxicity Protocol. KB-3-1, KB-V1 or their co-culture (1:1) were seeded onto 96-well plate (5×10^3 cells/well) and allowed to attach overnight. […] Medium containing the same concentration of PXL or/and CPT in the form of free drugs or conjugates (dCPT-Sup35 or dPXL-Sup35) were also used to incubate the cells, with non-treated cells (solvent only) as the control group. After 48 hours incubation, the cell viability was determined using the SRB method according to the manufacturer's protocol (TOX-6, Sigma, St. Louis, Mo.).

[8] = system: PXL-sensitive KB-3-1 cervical cancer cells; test: Cytotoxicity study of dual drug amphiphiles by SRB; type: cell-based; conditions: KB-3-1, 48 hours
Procedure: as §2, §3

Q: For “PXL-buSS-Tau (Ac-CGVQIVYKK; also: PXL-buSS conjugate, attachment site not given here)”, which cytotoxic effect [1] is on record?
A: Its cytotoxic effect is “strong cytotoxic effect”.

Q: What about the cytotoxic effect [2] of the same molecule?
A: The cytotoxic effect was “strong cytotoxic effect”.

Q: And the cytotoxic effect [3]?
A: Its cytotoxic effect is “strong cytotoxic effect”.

Q: And the “PXL-buSS-Tau cleaved by glutathione” value ([4]; 5 μM, after 2 hrs, PBS, 37° C., glutathione)?
A: The value was “around 70%”.

Q: What about the “release at 5 μM compared with 100 μM” value ([4]; 5 μM, presence of glutathione) of the same molecule?
A: Its value is “much faster release than that of 100 μM”.

Q: And the release of paclitaxel ([4]; 100 μM, after 30 minutes, presence of glutathione)?
A: Its release of paclitaxel is “Significant release of paclitaxel”.

Q: And the paclitaxel released ([4]; 100 μM, after 2 hrs, PBS, 37° C., glutathione)?
A: Its paclitaxel released is 40%.

Q: For “mCPT-buSS-Tau: one camptothecin linked via disulfanylbutanoate (buSS) linker to cysteine-functionalized Tau peptide CGVQIVYKK (C([buSS-camptothecin])GVQIVYKK; not fully specified (C-terminus))”, which critical micellization concentration [5] is on record?
A: The critical micellization concentration was 207 nM.

Q: For `CC(=O)O[C@H]1C(=O)[C@@]2(C)[C@H]([C@H](OC(=O)c3ccccc3)[C@]3(O)C[C@H](OC(=O)[C@H](O)[C@@H](NC(=O)c4ccccc4)c4ccccc4)C(C)=C1C3(C)C)[C@]1(OC(C)=O)CO[C@@H]1C[C@@H]2O` [PXL, paclitaxel, reference compound], which “sensitivity of cells / activity” value [6] is on record?
A: Its value is “no activity”.

Q: Which activity [7] does the source give for `CC[C@@]1(O)C(=O)OCc2c1cc1n(c2=O)Cc2cc3ccccc3nc2-1` [CPT, camptothecin] here?
A: The activity was “moderate activity”.

Q: What does the source list for `CC(=O)N[C@@H](CSSCCCC(=O)O[C@@H](C(=O)O[C@H]1C[C@@]2(O)[C@@H](OC(=O)c3ccccc3)[C@@H]3[C@]4(OC(C)=O)CO[C@@H]4C[C@H](O)[C@@]3(C)C(=O)[C@H](OC(C)=O)C(=C1C)C2(C)C)[C@@H](NC(=O)c1ccccc1)c1ccccc1)C(=O)NCCCC[C@H](NC(=O)[C@H](CSSCCCC(=O)O[C@@H](C(=O)O[C@H]1C[C@@]2(O)[C@@H](OC(=O)c3ccccc3)[C@@H]3[C@]4(OC(C)=O)CO[C@@H]4C[C@H](O)[C@@]3(C)C(=O)[C@H](OC(C)=O)C(=C1C)C2(C)C)[C@@H](NC(=O)c1ccccc1)c1ccccc1)NC(C)=O)C(=O)NCC(=O)N[C@@H](CC(N)=O)C(=O)N[C@@H](CC(N)=O)C(=O)N[C@@H](CCC(N)=O)C(=O)N[C@@H](CCC(N)=O)C(=O)N[C@@H](CC(N)=O)C(=O)N[C@@H](Cc1ccc(O)cc1)C(=O)N[C@@H](CCCCN)C(=O)N[C@@H](CCCCN)C(N)=O` [dPXL-Sup35] (Ac-C(Paclitaxel(2'-OCO(CH2)3S))K(X1)GNNQQNYKK-NH2)?
A: sensitivity of cells / activity [6]: no activity; sensitivity of cells [8]: nano-molar sensitivity
